# From PMC9706563 (2022)
# Like-named read-outs stand apart in the source and are kept apart here. Bridge positions count the residues as written; N and C are the ends. Square brackets hold non-standard residues; d marks the D form. Ends that are not written are not given here. * marks the point of attachment. FITC = O=C1OC2(c3ccc(O)cc3Oc3cc(O)ccc32)c2ccc(NC(=S)*)cc21; Phe(4-NO2) = N[C@@H](Cc1ccc([N+](=O)[O-])cc1)C(=O)O; Gla = N[C@@H](CC(C(=O)O)C(=O)O)C(=O)O; Dap = NC[C@H](N)C(=O)O; AEEA = NCCOCCOCC(=O)O
# B1: peptide 4 (native RioK1 PBM sequence, unlabeled reference) (peptide)
# chain: SRVVPGQFDDADSSD
# modifications: unlabeled; taken as the same span as the printed RioK1 tracer sequence (7BOC entity 2); end groups are in the figure/SI
# Legend:
# Test in all cases: FP
# [1] = biological target: T1, PRMT5-MEP50 complex (full-length, purified) (human | , UniProt O14744 1-637; Q9BQA1 1-342)
# [2] = biological target: T1, PRMT5-MEP50 complex (full-length, …); remark: listed apart in the source
# [3] = biological target: T1, PRMT5-MEP50 complex (full-length, …); remark: listed apart in the source
# T1 sequence (O14744 whole entry, chain 1 of 2): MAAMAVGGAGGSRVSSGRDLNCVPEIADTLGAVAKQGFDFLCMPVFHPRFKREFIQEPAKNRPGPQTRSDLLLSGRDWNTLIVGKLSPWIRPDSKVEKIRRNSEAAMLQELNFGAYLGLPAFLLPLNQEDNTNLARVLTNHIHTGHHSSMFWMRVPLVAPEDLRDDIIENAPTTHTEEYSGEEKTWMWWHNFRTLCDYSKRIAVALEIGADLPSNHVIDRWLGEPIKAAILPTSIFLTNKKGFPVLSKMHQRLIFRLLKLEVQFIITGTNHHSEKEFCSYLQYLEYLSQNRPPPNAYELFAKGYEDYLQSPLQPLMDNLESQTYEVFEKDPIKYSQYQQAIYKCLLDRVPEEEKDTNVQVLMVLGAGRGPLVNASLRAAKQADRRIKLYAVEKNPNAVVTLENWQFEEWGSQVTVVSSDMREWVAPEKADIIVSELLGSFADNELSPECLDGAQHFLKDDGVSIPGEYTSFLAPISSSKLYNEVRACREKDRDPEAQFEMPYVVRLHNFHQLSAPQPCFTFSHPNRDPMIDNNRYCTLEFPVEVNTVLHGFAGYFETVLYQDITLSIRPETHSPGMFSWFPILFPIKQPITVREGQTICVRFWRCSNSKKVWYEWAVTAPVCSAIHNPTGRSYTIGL
# T1 sequence (Q9BQA1 whole entry, chain 2 of 2): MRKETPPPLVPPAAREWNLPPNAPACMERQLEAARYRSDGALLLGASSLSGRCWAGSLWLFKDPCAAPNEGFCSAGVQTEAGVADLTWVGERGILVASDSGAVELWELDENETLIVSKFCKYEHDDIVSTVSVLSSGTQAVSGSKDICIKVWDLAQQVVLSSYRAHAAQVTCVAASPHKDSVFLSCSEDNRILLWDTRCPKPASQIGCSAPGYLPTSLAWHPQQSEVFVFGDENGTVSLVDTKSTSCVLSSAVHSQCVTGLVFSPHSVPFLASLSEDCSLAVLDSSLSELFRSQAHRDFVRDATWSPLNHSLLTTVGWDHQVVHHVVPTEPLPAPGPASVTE
Binder,Ki [1],other results
SRVVP[dA]QFDDADSSD [peptide 1 (RioK1 PBM with D-Ala)],5100 nM,–
SRVVP[dA]QF[dA]DADSSD [peptide 3 (RioK1 PBM with D-Ala at 14 and 17)],65000 nM,–
VPGQFDDA[Gla] (also: FITC as in peptide 29) [linear peptide 40 (29 with Asp replaced by Gla)],–,Kd [2]: 245 nM
{FITC-AEEA}-SRVVP[Dap]QFDDADSSD-NH2 (lactam 6-9; not fully specified) [5],–,Kd [3]: > 2000 nM
SRVVPGQF[dA]DADSSD [peptide 2 (RioK1 PBM with D-Ala)],4500 nM,–
VPGQ[Phe(4-NO2)]DDAD (also: FITC as in peptide 29) [linear peptide 41 (29 with Phe replaced by Phe(4-NO2))],–,Kd [2]: 232 nM
B1,1800 nM,–
